In PMC11445502, “CDK phosphorylation of Sfr1 downregulates Rad51 function in late-meiotic homolog invasions” (The EMBO Journal, 2024):

Experiments:
[1] = target: Rad51 (UniProt P36601); test: focus co-localisation on nuclear spreads; conditions: reference: EGFP-Sfr1 wild type; sites T73,T89,S109,S116,S147,T152,S165
[2] = target: Rad51 (UniProt P36601); test: GST pulldown from mixed bacterial lysates; conditions: reference: wild-type GST-Sfr1; sites T73,T89,S109,S116,S147,T152,S165
[3] = target: T1, GST-Sfr1-7A (S. pombe, UniProt Q9USV1 1-299, Thr73 to Ala | Thr89 to Ala | Ser109 to Ala | Ser116 to Ala | Ser147 to Ala | …); test: pull-down; GST-Sfr1 lysates (~2 mg) and Rad51 extract (75 ug) from E. coli mixed, Glutathione Sepharose 4B, 1 h at 4 °C; pulldown buffer 25 mM HEPES-KOH pH 7.5, 150 mM NaCl, 3.5 mM MgCl2, 0.5 mM DTT, 0.05 mg/ml BSA, 10% glycerol, 0.05% Igepal; western blot anti-GST and anti-Rad51; Rad51/GST ratio quantified; conditions: partners not purified
T1 construct: Sfr1, S. pombe, all seven putative CDK sites changed to alanine; pGEX-4T-1 should put GST at the N-terminus (surmised); Partly degraded as m1; also called pGEX-4T-1 sfr1-7A (CMC102); source: E. coli BL21 DE3, in cleared lysate
T1 sequence (looked up): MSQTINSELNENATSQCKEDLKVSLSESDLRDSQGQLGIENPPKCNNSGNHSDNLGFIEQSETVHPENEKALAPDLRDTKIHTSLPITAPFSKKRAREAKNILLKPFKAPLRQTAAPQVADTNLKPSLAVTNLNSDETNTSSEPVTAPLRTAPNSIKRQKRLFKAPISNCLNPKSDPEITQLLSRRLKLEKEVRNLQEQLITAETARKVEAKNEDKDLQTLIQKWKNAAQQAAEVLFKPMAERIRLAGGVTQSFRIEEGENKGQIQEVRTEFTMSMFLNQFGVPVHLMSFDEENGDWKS

[4] = target: T2, GST-Sfr1-WI (S. pombe, UniProt Q9USV1 1-299, Lys93 to Ala | Lys94 to Ala | Arg95 to Ala | Lys157 to Ala | Arg158 to Ala | …); test: as above; conditions: partners not purified
T2 construct: Sfr1, S. pombe, seven arginine and lysine residues of Site 1 and Site 2 changed to alanine; pGEX-4T-1 should put GST at the N-terminus (surmised); Partly degraded as m1; also called pGEX-4T-1 sfr1-WI (CMC98); source: E. coli BL21 DE3, in cleared lysate
T2 sequence (looked up): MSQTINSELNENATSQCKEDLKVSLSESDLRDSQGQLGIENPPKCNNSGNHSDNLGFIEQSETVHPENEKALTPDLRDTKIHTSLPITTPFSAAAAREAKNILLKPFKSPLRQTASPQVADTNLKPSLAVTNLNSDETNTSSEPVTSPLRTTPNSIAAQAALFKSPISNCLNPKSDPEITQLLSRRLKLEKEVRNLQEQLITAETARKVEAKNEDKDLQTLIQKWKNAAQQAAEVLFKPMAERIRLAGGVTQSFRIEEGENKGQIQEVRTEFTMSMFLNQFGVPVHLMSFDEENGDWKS

Sfr1 (from UniProt Q9USV1) EGFP-Sfr1-7A
other: % of Rad51 foci co-localised with EGFP-Sfr1 foci [1]: same; reference 78

Sfr1 (from UniProt Q9USV1) EGFP-Sfr1-7D
other: % of Rad51 foci co-localised with EGFP-Sfr1 foci [1]: weaker; reference 78

Sfr1 (from UniProt Q9USV1) GST-Sfr1-7A
percent of reference [2]: 81%

B1: Rad51 (untagged) (natural protein, S. pombe, UniProt P36601 1-365, looked up)
chain: MADTEVEMQVSAADTNNNENGQAQSNYEYDVNVQDEEDEAAAGPMPLQMLEGNGITASDIKKIHEAGYYTVESIAYTPKRQLLLIKGISEAKADKLLGEASKLVPMGFTTATEYHIRRSELITITTGSKQLDTLLQGGVETGSITELFGEFRTGKSQICHTLAVTCQLPIDMGGGEGKCLYIDTEGTFRPVRLLAVADRYGLNGEEVLDNVAYARAYNADHQLELLQQAANMMSESRFSLLVVDSCTALYRTDFSGRGELSARQMHLARFMRTLQRLADEFGIAVVITNQVVAQVDGISFNPDPKKPIGGNILAHSSTTRLSLRKGRGEQRICKIYDSPCLPESEAIFAINSDGVGDPKEIIAPV
notes: Rad51 recombinase, S. pombe, untagged, in pET-11d; Plasmid ordered from GeneUniversal or GeneCust; also called pET-11d rad51 (CMC99); recombinase Rad51; source: E. coli BL21 DE3, in cleared lysate
efficiency of binding compared to control GST-Sfr1 (Rad51/GST ratio) [3]: 81% | efficiency of binding compared to control GST-Sfr1 (Rad51/GST ratio) [4]: 17%
